T1: mCherry-tagged WIPI1 (UniProt Q5MNZ9 1-446)
T1 construct: WIPI1; called purified WIPI1-4 in the results
T1 sequence (looked up): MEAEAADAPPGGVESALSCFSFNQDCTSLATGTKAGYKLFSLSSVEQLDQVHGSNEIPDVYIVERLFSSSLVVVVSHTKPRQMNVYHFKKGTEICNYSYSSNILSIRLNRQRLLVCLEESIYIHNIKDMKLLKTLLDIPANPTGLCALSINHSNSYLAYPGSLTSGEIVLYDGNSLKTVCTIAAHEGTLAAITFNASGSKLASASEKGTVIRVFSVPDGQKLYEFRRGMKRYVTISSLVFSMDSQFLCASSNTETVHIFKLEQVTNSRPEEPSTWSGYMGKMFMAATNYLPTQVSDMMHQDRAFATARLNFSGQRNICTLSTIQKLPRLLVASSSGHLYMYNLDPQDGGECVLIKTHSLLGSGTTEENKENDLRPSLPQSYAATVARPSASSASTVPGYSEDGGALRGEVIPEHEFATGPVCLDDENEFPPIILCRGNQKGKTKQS

B1: NIX(1–182)-GST (domain or fragment)
chain: not shown
notes: NIX (BNIP3L), human, cytosol-exposed domain, residues 1-182; transmembrane domain replaced by GST; also called NIX-GST; GST-tagged NIX; source: E. coli Rosetta pLysS, purified; not shown: GST, C-terminal, kept
B2: mCherry-tagged ATG13 IDR (191–517 aa) (domain or fragment, UniProt O75143 191-517, looked up)
chain: INLAFMSTRQFERTPPIMGIIIDHFVDRPYPSSSPMHPCNYRTAGEDTGVIYPSVEDSQEVCTTSFSTSPPSQLSSSRLSYQPAALGVGSADLAYPVVFAAGLNATHPHQLMVPGKEGGVPLAPNQPVHGTQADQERLATCTPSDRTHCAATPSSSEDTETVSNSSEGRASPHDVLETIFVRKVGAFVNKPINQVTLTSLDIPFAMFAPKNLELEDTDPMVNPPDSPETESPLQGSLHSDGSSGGSSGNTHDDFVMIDFKPAFSKDDILPMDLGTFYREFQNPPQLSSLSIDIGAQSMAEDLDSLPEKLAVHEKNVREFDAFVETLQ
notes: also called mCh-IDR; source: E. coli Rosetta pLysS, purified; not shown: mCherry, N-terminal, kept
B3: GFP-tagged ATG13 (191–230 aa) (peptide, UniProt O75143 191-230, looked up)
chain: INLAFMSTRQFERTPPIMGIIIDHFVDRPYPSSSPMHPCN
notes: Addgene number by the order of printing; source: E. coli Rosetta pLysS, purified; not shown: EGFP, N-terminal, kept
B4: GFP-tagged ATG13 (206–230 aa) (peptide, UniProt O75143 206-230, looked up)
chain: PIMGIIIDHFVDRPYPSSSPMHPCN
notes: ATG13, residues 206-230; Addgene number by the order of printing; also called ATG13 IDR fragment residues 206–230; source: E. coli Rosetta pLysS, purified; not shown: EGFP, N-terminal, kept
B5: GFP-tagged ATG13 IDR (191–517 aa) (domain or fragment, UniProt O75143 191-517, looked up)
chain: B2 chain
notes: also called full IDR; full-length IDR; source: E. coli Rosetta pLysS, purified; not shown: EGFP, N-terminal, kept
B6: GFP-tagged ATG13 IDR Δ191–205 (205–517 aa) (domain or fragment, UniProt O75143 205-517, looked up)
chain: PPIMGIIIDHFVDRPYPSSSPMHPCNYRTAGEDTGVIYPSVEDSQEVCTTSFSTSPPSQLSSSRLSYQPAALGVGSADLAYPVVFAAGLNATHPHQLMVPGKEGGVPLAPNQPVHGTQADQERLATCTPSDRTHCAATPSSSEDTETVSNSSEGRASPHDVLETIFVRKVGAFVNKPINQVTLTSLDIPFAMFAPKNLELEDTDPMVNPPDSPETESPLQGSLHSDGSSGGSSGNTHDDFVMIDFKPAFSKDDILPMDLGTFYREFQNPPQLSSLSIDIGAQSMAEDLDSLPEKLAVHEKNVREFDAFVETLQ
notes: as for B3

Columns and labels:
Details in all cases: both partners purified
[1] = molecular target: T1, mCherry-tagged WIPI1; assay: microscopy-based bead assay; GST-tagged bait on Glutathione Sepharose 4B beads, GFP- or mCherry-tagged prey in solution, confocal imaging
[2] = molecular target: GST-WIPI3 (UniProt Q5MNZ6 1-344); assay: as above
[3] = molecular target: T2, mCherry-WIPI3 (UniProt Q5MNZ6 1-344); assay: microscopy-based bead assay; GFP-tagged bait on GFP-trap agarose beads, mCherry-tagged prey in solution, confocal imaging
T2 construct: 6xHis-TEV-mCherry tag; also called mCherry-tagged WIPI3; source: E. coli Rosetta pLysS, purified; not shown: mCherry, N-terminal, kept

| Binder | binding result [3] | also measured |
| --- | --- | --- |
| B1 |  | binding result [1]: binds |
| B2 |  | binding result [2]: binds |
| B3 | binds |  |
| B4 | binds |  |
| B5 | binds |  |
| B6 | binds |  |
